The values below come from article PMC5387740.

This assay deals with osteopontin (UniProt P10451).
UniProt P10451, sequence (P10451 17-314): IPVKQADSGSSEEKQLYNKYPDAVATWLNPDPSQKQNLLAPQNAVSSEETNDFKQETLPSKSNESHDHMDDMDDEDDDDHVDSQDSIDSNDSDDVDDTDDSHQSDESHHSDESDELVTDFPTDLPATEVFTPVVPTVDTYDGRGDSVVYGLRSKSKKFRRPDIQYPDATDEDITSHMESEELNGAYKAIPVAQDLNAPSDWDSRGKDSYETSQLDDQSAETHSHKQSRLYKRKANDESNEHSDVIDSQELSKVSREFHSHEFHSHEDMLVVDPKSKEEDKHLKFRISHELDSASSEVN

integrin alpha v (αV) (receptor) had a PDGF-BB-stimulated fibroblast migration on osteopontin (monolayer wound closure, 24 h): inhibition by integrin αV blocking antibody in the panel of integrin blocking antibodies (Fig. 3B) of 92% and a PDGF-BB-stimulated fibroblast migration on osteopontin (monolayer wound closure, 24 h): reduction by integrin αV blocking antibody compared to control IgG (Fig. 3A) of 91%.
